Data reported in US20220119490A1 (Genentech, published 2022).

B1: LILRA3 (ECD-Fc fusion protein) (Fc fusion, human, UniProt Q8N6C8 24-439, looked up)
chain: GPLPKPTLWAEPGSVITQGSPVTLRCQGSLETQEYHLYREKKTALWITRIPQELVKKGQFPILSITWEHAGRYCCIYGSHTAGLSESSDPLELVVTGAYSKPTLSALPSPVVTSGGNVTIQCDSQVAFDGFILCKEGEDEHPQCLNSHSHARGSSRAIFSVGPVSPSRRWSYRCYGYDSRAPYVWSLPSDLLGLLVPGVSKKPSLSVQPGPVVAPGEKLTFQCGSDAGYDRFVLYKEWGRDFLQRPGRQPQAGLSQANFTLGPVSRSYGGQYTCSGAYNLSSEWSAPSDPLDILITGQIRARPFLSVRPGPTVASGENVTLLCQSQGGMHTFLLTKEGAADSPLRLKSKRQSHKYQAEFPMSPVTSAHAGTYRCYGSLSSNPYLLTHPSDPLELVVSGAAETLSPPQNKSDSKAGE
notes: extracellular domain; Immobilized on the SPR chip
B2: EDAR expressed on cells (receptor, human, UniProt Q9UNE0 27-448, looked up)
chain: EYSNCGENEYYNQTTGLCQECPPCGPGEEPYLSCGYGTKDEDYGCVPCPAEKFSKGGYQICRRHKDCEGFFRATVLTPGDMENDAECGPCLPGYYMLENRPRNIYGMVCYSCLLAPPNTKECVGATSGASANFPGTSGSSTLSPFQHAHKELSGQGHLATALIIAMSTIFIMAIAIVLIIMFYILKTKPSAPACCTSHPGKSVEAQVSKDEEKKEAPDNVVMFSEKDEFEKLTATPAKPTKSENDASSENEQLLSRSVDSDEEPAPDKQGSPELCLLSLVHLAREKSATSNKSAGIQSRRKKILDVYANVCGVVEGLSPTELPFDCLEKTSRMLSSTYNSEKAVVKTWRHLAESFGLKRDEIGGMTDGMQLFDRISTAGYSIPELLTKLVQIERLDAVESLCADILEWAGVVPPASQPHAAS
notes: whole, on cells; C-terminally tagged in the co-IP; also called EDAR-HA
B3: LILRB5 extracellular domain (receptor, human, UniProt O75023 24-458, looked up)
chain: GTLPKPTLWAEPASVIARGKPVTLWCQGPLETEEYRLDKEGLPWARKRQNPLEPGAKAKFHIPSTVYDSAGRYRCYYETPAGWSEPSDPLELVATGFYAEPTLLALPSPVVASGGNVTLQCDTLDGLLTFVLVEEEQKLPRTLYSQKLPKGPSQALFPVGPVTPSCRWRFRCYYYYRKNPQVWSNPSDLLEILVPGVSRKPSLLIPQGSVVARGGSLTLQCRSDVGYDIFVLYKEGEHDLVQGSGQQPQAGLSQANFTLGPVSRSHGGQYRCYGAHNLSPRWSAPSDPLDILIAGLIPDIPALSVQPGPKVASGENVTLLCQSWHQIDTFFLTKEGAAHPPLCLKSKYQSYRHQAEFSMSPVTSAQGGTYRCYSAIRSYPYLLSSPSYPQELVVSGPSGDPSLSPTGSTPTPGPEDQPLTPTGLDPQSGLGRHLG
notes: extracellular domain
B4: LILRB5 expressed on cells (receptor, human, UniProt O75023 24-590, looked up)
chain: GTLPKPTLWAEPASVIARGKPVTLWCQGPLETEEYRLDKEGLPWARKRQNPLEPGAKAKFHIPSTVYDSAGRYRCYYETPAGWSEPSDPLELVATGFYAEPTLLALPSPVVASGGNVTLQCDTLDGLLTFVLVEEEQKLPRTLYSQKLPKGPSQALFPVGPVTPSCRWRFRCYYYYRKNPQVWSNPSDLLEILVPGVSRKPSLLIPQGSVVARGGSLTLQCRSDVGYDIFVLYKEGEHDLVQGSGQQPQAGLSQANFTLGPVSRSHGGQYRCYGAHNLSPRWSAPSDPLDILIAGLIPDIPALSVQPGPKVASGENVTLLCQSWHQIDTFFLTKEGAAHPPLCLKSKYQSYRHQAEFSMSPVTSAQGGTYRCYSAIRSYPYLLSSPSYPQELVVSGPSGDPSLSPTGSTPTPGPEDQPLTPTGLDPQSGLGRHLGVVTGVSVAFVLLLFLLLFLLLRHRHQSKHRTSAHFYRPAGAAGPEPKDQGLQKRASPVADIQEEILNAAVKDTQPKDGVEMDAPAAASEAPQDVTYAQLHSLTLRREATEPPPSQEREPPAEPSIYAPLAIH
notes: whole, on cells
B5: LILRB1 extracellular domain (receptor, human, UniProt Q8NHL6 24-461, looked up)
chain: GHLPKPTLWAEPGSVITQGSPVTLRCQGGQETQEYRLYREKKTALWITRIPQELVKKGQFPIPSITWEHAGRYRCYYGSDTAGRSESSDPLELVVTGAYIKPTLSAQPSPVVNSGGNVILQCDSQVAFDGFSLCKEGEDEHPQCLNSQPHARGSSRAIFSVGPVSPSRRWWYRCYAYDSNSPYEWSLPSDLLELLVLGVSKKPSLSVQPGPIVAPEETLTLQCGSDAGYNRFVLYKDGERDFLQLAGAQPQAGLSQANFTLGPVSRSYGGQYRCYGAHNLSSEWSAPSDPLDILIAGQFYDRVSLSVQPGPTVASGENVTLLCQSQGWMQTFLLTKEGAADDPWRLRSTYQSQKYQAEFPMGPVTSAHAGTYRCYGSQSSKPYLLTHPSDPLELVVSGPSGGPSSPTTGPTSTSGPEDQPLTPTGSDPQSGLGRHLGV
notes: extracellular domain; also called leukocyte immunoglobulin-like receptor subfamily B member 1
B6: CNTFR extracellular domain (receptor, human, UniProt P26992 23-342, looked up)
chain: QRHSPQEAPHVQYERLGSDVTLPCGTANWDAAVTWRVNGTDLAPDLLNGSQLVLHGLELGHSGLYACFHRDSWHLRHQVLLHVGLPPREPVLSCRSNTYPKGFYCSWHLPTPTYIPNTFNVTVLHGSKIMVCEKDPALKNRCHIRYMHLFSTIKYKVSISVSNALGHNATAITFDEFTIVKPDPPENVVARPVPSNPRRLEVTWQTPSTWPDPESFPLKFFLRYRPLILDQWQHVELSDGTAHTITDAYAGKEYIIQVAAKDNEIGTWSDWSVAAHATPWTEEPRHLTTEAQAAETTTSTTSSLAPPPTTKICDPGELGS
notes: extracellular domain; Soluble query, streptavidin tetramer
B7: podoplanin (PDPN) extracellular domain (receptor, human, UniProt Q86YL7 23-131, looked up)
chain: ASTGQPEDDTETTGLEGGVAMPGAEDDVVTPGTSEDRYKSGLTTLVATSVNSVTGIRIEDLPTSESTVHAQEQSPSATASNVATSHSTEKVDGDTQTTVEKDGLSTVTL
modifications: biotinylated Avi tag in the tetramer
notes: extracellular domain; Streptavidin-APC tetramer in the screens; monomeric Avi-tagged ectodomain for KD; also called gp38; Aggrus

What was measured:
[1] = target: T1, EPHA3 extracellular domain (human, UniProt P29320 21-541); assay: SPR, LILRA3 ECD-Fc immobilized, ECD-Fc analytes at 250 nM
T1 construct: extracellular domain; ECD construct; also called ephrin type-A receptor 3
T1 sequence (looked up): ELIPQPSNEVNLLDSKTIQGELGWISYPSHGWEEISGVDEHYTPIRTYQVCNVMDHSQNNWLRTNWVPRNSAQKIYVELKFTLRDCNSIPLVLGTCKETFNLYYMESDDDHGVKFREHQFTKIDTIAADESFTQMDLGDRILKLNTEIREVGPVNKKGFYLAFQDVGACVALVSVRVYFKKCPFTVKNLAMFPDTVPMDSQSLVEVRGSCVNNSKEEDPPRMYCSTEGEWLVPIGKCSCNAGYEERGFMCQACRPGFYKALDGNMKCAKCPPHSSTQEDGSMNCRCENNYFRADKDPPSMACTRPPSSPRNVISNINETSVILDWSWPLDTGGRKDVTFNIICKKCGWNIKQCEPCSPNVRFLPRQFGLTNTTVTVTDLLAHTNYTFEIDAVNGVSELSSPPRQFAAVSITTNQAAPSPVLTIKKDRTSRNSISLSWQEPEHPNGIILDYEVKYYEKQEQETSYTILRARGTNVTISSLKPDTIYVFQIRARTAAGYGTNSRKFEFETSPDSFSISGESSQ
Description: (§1) An irrelevant Fc-tagged protein was used as a control. Sensorgram shown is representative of at least 3 independent runs.

EPHA5 = target: T2, EPHA5 (human, UniProt P54756); assay: as above
T2 construct: extracellular domain; analyte at 250 nM on immobilized LILRA3
T2 sequence (P54756 25-573): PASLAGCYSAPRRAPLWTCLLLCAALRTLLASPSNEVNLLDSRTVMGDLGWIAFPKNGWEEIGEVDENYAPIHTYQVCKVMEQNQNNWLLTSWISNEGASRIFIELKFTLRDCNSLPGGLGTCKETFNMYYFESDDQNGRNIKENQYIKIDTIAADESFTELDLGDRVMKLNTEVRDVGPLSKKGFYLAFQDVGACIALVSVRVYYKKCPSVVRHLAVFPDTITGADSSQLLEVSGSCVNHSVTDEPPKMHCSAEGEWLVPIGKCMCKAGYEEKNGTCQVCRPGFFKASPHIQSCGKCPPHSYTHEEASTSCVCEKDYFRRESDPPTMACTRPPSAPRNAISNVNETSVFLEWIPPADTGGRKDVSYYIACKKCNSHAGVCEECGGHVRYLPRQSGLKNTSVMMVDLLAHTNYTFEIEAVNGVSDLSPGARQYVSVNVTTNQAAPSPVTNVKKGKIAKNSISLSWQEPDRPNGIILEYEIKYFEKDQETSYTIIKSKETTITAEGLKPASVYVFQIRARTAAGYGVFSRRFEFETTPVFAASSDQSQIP
Description: as §1

[2] = target: B5; assay: cell surface interaction assay: soluble multimerized LILRB on transfected cells
LDLR expressed on cells = target: T3, LDLR expressed on cells (human, UniProt P01130 22-860); assay: as above
T3 construct: whole, on cells
T3 sequence (P01130 22-860): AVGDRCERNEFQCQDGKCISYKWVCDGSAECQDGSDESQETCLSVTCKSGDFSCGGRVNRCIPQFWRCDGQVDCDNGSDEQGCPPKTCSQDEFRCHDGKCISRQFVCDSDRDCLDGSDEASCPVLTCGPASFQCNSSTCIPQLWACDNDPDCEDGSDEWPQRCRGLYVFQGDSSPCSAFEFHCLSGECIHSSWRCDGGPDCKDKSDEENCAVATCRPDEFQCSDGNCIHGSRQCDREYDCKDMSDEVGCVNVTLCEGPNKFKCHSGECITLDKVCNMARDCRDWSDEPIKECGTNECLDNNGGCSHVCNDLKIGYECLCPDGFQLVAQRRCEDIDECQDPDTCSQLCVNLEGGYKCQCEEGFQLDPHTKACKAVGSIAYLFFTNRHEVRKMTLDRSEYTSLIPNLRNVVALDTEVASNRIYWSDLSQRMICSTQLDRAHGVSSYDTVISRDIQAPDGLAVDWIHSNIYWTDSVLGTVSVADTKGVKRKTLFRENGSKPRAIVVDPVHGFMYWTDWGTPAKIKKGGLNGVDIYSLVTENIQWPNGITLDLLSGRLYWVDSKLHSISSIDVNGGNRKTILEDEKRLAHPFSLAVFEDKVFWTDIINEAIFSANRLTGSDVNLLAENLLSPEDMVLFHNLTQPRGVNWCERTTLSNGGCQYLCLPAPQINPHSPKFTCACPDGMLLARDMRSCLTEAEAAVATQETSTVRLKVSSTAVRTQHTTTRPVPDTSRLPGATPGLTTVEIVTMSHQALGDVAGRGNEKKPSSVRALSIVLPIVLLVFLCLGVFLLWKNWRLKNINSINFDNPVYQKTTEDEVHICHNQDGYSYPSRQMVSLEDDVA

[3] = target: T4, LDLR extracellular domain (human, UniProt P01130 22-788); assay: cell surface interaction assay: ECD tetramer on transfected cells (FIG. 5N)
T4 construct: extracellular domain; Soluble query, streptavidin tetramer; also called low-density lipoprotein receptor
T4 sequence (P01130 22-788): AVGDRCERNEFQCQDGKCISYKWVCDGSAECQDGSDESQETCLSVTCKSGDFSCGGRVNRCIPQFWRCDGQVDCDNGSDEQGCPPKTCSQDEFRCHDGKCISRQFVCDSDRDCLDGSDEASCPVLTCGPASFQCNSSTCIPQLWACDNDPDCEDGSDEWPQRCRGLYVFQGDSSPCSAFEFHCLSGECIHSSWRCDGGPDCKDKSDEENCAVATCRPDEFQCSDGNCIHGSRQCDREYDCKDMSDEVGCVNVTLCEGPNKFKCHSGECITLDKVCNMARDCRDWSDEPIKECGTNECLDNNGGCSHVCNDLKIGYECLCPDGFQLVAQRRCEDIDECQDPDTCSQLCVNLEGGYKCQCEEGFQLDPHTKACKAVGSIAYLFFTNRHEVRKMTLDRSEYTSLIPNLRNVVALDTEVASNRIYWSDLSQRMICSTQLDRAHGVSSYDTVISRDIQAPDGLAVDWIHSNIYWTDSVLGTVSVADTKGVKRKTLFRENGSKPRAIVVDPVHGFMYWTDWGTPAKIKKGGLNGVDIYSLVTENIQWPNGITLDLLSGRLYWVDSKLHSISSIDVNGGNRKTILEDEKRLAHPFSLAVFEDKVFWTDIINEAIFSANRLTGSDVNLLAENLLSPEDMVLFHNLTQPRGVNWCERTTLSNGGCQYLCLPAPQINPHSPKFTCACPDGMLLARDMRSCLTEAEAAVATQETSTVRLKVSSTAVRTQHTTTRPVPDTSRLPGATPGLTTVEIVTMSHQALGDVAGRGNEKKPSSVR

FLT4 expressed on cells = target: T5, FLT4 expressed on cells (human, UniProt P35916 25-1363); assay: cell surface interaction assay: soluble multimerized LILRB on transfected cells
T5 construct: whole, on cells; also called VEGFR3; vascular endothelial growth factor receptor 3
T5 sequence (P35916 25-1363): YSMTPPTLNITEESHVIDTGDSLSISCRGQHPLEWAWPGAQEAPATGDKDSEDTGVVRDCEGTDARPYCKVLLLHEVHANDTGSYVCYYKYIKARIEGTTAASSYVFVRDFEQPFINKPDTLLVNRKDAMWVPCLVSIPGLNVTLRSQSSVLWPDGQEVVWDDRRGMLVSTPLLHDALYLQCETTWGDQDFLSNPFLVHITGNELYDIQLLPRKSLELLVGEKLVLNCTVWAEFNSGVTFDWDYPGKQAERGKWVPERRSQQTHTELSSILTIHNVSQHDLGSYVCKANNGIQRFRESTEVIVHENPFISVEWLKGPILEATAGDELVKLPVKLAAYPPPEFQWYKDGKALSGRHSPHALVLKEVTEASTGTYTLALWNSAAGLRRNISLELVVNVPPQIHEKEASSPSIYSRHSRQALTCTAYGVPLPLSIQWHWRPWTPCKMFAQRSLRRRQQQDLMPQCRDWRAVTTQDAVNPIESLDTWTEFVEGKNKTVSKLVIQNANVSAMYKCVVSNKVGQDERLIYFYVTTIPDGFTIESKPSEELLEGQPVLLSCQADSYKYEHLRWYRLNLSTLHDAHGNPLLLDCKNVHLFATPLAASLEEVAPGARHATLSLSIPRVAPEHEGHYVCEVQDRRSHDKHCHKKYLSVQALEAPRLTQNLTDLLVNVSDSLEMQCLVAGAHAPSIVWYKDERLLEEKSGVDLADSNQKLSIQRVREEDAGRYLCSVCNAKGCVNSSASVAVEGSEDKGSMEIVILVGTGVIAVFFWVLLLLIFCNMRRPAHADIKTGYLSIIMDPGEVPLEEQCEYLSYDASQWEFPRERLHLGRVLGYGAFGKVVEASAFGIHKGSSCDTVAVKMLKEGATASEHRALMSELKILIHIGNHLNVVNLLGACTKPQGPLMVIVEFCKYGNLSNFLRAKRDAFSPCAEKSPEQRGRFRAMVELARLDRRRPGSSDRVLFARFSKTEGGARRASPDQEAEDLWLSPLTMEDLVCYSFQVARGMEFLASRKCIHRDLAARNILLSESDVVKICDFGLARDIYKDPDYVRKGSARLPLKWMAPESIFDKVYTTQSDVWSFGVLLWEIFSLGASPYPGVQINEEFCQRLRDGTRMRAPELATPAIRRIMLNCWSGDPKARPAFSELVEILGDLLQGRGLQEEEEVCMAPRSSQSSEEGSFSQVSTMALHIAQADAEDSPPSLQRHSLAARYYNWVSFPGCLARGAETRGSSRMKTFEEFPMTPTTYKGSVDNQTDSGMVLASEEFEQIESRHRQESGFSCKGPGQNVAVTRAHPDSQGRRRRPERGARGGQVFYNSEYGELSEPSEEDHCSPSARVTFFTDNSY

IL6R expressed on cells = target: T6, IL6R expressed on cells (human, UniProt P08887 20-468); assay: as above
T6 construct: whole, on cells; C-terminally tagged in the co-IP; also called IL6R-HA
T6 sequence (looked up): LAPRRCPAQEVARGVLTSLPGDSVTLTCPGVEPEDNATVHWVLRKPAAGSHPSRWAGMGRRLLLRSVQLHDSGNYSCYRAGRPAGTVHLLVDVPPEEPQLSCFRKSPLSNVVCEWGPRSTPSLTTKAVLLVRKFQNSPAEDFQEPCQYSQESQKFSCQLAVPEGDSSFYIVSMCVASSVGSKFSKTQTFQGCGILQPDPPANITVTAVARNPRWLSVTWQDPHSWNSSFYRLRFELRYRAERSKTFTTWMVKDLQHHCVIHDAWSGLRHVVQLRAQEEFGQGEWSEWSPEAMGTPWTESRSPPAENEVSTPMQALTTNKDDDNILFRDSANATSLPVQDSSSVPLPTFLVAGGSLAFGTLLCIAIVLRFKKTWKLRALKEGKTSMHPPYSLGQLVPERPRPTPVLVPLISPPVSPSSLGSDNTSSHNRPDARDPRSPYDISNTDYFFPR

[4] = target: T7, LILRB4 expressed on cells (human, UniProt Q8NHJ6 22-448); assay: cell surface interaction assay: ECD tetramer on transfected cells (FIG. 5N)
T7 construct: whole, on cells; C-terminally tagged in the co-IP; also called LILRB4-FLAG

[5] = target: T8, CD177 extracellular domain (human, UniProt Q8N6Q3 22-408, limits assumed); assay: SPR, fit to equilibrium; CD177 ECD immobilized, monomeric Avi-tagged PDPN ectodomain as analyte
T8 construct: extracellular domain; ECD-gD-GPI on COS-7 cells in the screen; recombinant ECD in SPR and CAF assays; streptavidin tetramer in organoid cultures; also called NB1; PRV1
T8 sequence (looked up): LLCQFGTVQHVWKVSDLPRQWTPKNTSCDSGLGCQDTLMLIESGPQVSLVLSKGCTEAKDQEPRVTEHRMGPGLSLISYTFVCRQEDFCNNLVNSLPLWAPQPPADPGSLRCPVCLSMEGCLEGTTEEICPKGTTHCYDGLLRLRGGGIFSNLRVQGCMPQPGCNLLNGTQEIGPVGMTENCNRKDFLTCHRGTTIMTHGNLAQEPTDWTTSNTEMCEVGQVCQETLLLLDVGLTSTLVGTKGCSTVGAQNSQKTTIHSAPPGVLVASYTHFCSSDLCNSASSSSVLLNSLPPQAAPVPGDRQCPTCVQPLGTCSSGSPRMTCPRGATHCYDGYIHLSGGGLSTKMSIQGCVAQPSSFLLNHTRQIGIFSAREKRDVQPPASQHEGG
Protocol: (§2) SPR was measured using a Proteon XPR36 Instrument (Biorad) or a Biacore 3000 (GE Healthcare). […] Bulk refractive index changes were removed by substrating a reference flow response. For KD calculations, 300-400 resonance units were immobilized, and kinetic data were fit to equilibrium or a Langmuir model to calculate kinetic parameters for CD177 and CLEC-2 binding, respectively. […] All sensorgrams were analyzed with BiaEvaluation 4.1 (Biacore) or Proteon Manager 3.1.0.6 (Proteon) software.

[6] = target: T9, CLEC-2 extracellular domain (human, UniProt Q9P126 55-229); assay: SPR, Langmuir model; CLEC-2 ECD immobilized, monomeric Avi-tagged PDPN ectodomain as analyte
T9 construct: extracellular domain; Recombinant ECD in SPR and CAF assays; streptavidin tetramer in organoid cultures; also called CLEC1B; rCLEC-2
T9 sequence (Q9P126 55-229): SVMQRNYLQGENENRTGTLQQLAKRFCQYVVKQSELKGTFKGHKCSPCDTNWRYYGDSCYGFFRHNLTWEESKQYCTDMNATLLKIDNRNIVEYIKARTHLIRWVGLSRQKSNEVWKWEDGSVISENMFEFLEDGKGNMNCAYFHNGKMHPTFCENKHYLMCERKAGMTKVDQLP
Protocol: as §2

B1
binding result [1]: binds
binding result (EPHA5): no binding (tested: 250 nM)

B2
binding result [2]: binds

B3
binding result (LDLR expressed on cells): binds

B4
binding result [3]: binds

B5
binding result (FLT4 expressed on cells): binds
binding result (IL6R expressed on cells): binds

B6
binding result [4]: binds

B7
Kd [5]: 3.3 µM
Kd [6]: 210 nM
